{"source": "paper doi:10.1101/2023.05.11.540447v1", "key": {"purified protein [1]": {"substrate": "CC(=O)N[C@H]1[C@@H](OP(=O)(O)OP(=O)(O)OC[C@H]2O[C@@H](n3ccc(=O)[nH]c3=O)[C@H](O)[C@@H]2O)O[C@H](CO)[C@@H](O)[C@@H]1O", "test": "purified protein", "details": "UDP-GlcA fixed at 2.5 mM, Mg2+, 37 °C, GDN detergent"}, "purified protein [2]": {"substrate": "O=C(O)[C@H]1O[C@H](OP(=O)(O)OP(=O)(O)OC[C@H]2O[C@@H](n3ccc(=O)[nH]c3=O)[C@H](O)[C@@H]2O)[C@H](O)[C@@H](O)[C@@H]1O", "test": "purified protein", "details": "UDP-GlcNAc fixed at 2.5 mM, Mg2+, 37 °C, GDN detergent"}}, "data": [{"protein": "Xl-HAS-1 (Xenopus laevis) (protein) MKEKAAETMEIPEGIPKDLEPKHPTLWRIIYYSFGVVLLATITAAYVAEFQVLKHEAILFSLGLYGLAMLLHLMMQSLFAFLEIRRVNKSELPCSFKKTVALTIAGYQENPEYLIKCLESCKYVKYPKDKLKIILVIDGNTEDDAYMMEMFKDVFHGEDVGTYVWKGNYHTVKKPEETNKGSCPEVSKPLNEDEGINMVEELVRNKRCVCIMQQWGGKREVMYTAFQAIGTSVDYVQVCDSDTKLDELATVEMVKVLESNDMYGAVGGDVRILNPYDSFISFMSSLRYWMAFNVERACQSYFDCVSCISGPLGMYRNNILQVFLEAWYRQKFLGTYCTLGDDRHLTNRVLSMGYRTKYTHKSRAFSETPSLYLRWLNQQTRWTKSYFREWLYNAQWWHKHHIWMTYESVVSFIFPFFITATVIRLIYAGTIWNVVWLLLCIQIMSLFKSIYACWLRGNFIMLLMSLYSMLYMTGLLPSKYFALLTLNKTGWGTSGRKKIVGNYMPILPLSIWAAVLCGGVGYSIYMDCQNDWSTPEKQKEMYHLLYGCVGYVMYWVIMAVMYWVWVKRCCRKRSQTVTLVHDIPDMCV", "values": [{"measurement": "Km", "setting": "purified protein [1]", "result": 470, "unit": "µM"}, {"measurement": "Km", "setting": "purified protein [2]", "result": 370, "unit": "µM"}]}]}
